Data reported in the DeepSol protein solubility set.

Assay: soluble on expression in E. coli; label from the status in PepcDB or PDB records

Row | Sequence | soluble on expression in E. coli
1 | MSLRKKGPVVLGKFWIYWCEKCNVPLIGDTCSIHGKDSVFKITLTPPGDVRFAFPKDIELIREVFREHYGVDLGELLEGKIVLLNKIPGEDDSYEIIFDGFIFGIISFNPRKLKWKPGLKEEGAKLLWEKFGKSLKKWVIIDRGAVEPVKNGANVLPVGVIEAEESIRRGDEVIVVSEDGEVVGVGIAKKDYNELINPQARGTGVKMKRKSKGSGKRLNGRKATIKDVIKANSAELEKKVREARNFMRSVAEKFKLPVAVAFSGGKDSLAVLGLAMEEFNNFTVFFNNTGIEFPETVEYVMKLREKYKNLNFIIADAGDAFWRAINIFSPPGMDYRWCCKVTKLGPITLAIRKHFPNGVLMFVGQRKFESFKRYKQGRVWKNKWVPNEIGAAPIFHWTALEVWLYIFSRGLEYNPLYEKGIDRIGCFLCPSQSLAEIQRLKEEKPELWEKWYRELEKWRKRLGLPREWIEYGFWRWRRVGRREKVLAKELGVEIPEERSWEVIKFDIKEEEGKYIVRPSTKLNLTRIREVAPILGNVEEGDNYLKAGENIFDKDKNVIISPSLEEAYSSVLLLKRAYECVGCGVCITSCPEEAIELDEKRKKIVVSLEKCTHCRECMNVCPLVVIKGVDNILEGHHHHHH | not soluble
2 | MSLRPARKTVGVALSGGGANGIAQIGVLKALDEERIPVDYIAGTSMGAIIGGLYSCGYSPADLEKIAETLPWQSVLSIREENPRARIFLEQQRIRDRSTIAIRFDKLKLMIPKSLSSAQALTGTLDLLILNGVYHSWQDFNSLPVQFRAVSTDLISGKRITLTSGSLSEAMRASSTIPVLFEPIERDGYRLVDGGLVANLPVDELDVVNASYKIAVDTHGSMYSKSGDLDLPWKAADQAITILTGLQYPAQLEKADEGHHHHHH | soluble
3 | MSLRPVKLAALLPLTGPFAFAGNAGREGFVDGVDYVNEVLGGIAGRKLELIVEDTGYDVAKGTAAFNRVLSRERPDELLFVYGDSTGLSKALAPEIARIGLPYSATSFANELADPEKYPTIFVFGPTYNDMMEALLRQIRLQKGKARIALVYSNTEFGRDPIPYVKERAKALGMEVVHEEVTPPAFTDATPVVLNLRRANPDFVLLQGYALSAEPLILRAAREQGLRAQFMGTYYSAELVLIQRAGPAAEGFTVTYHNPYWYDTLVPAVDEMRKFRQRKGRDSSYRPTYYMGSLAVALGVAEAMRRAAQAGKLTRAGVVEYLEKIGDYNAMGLVRGYQFVNHRIPYTKLYRASVKDGRFNAITDWLKLAEGHHHHHH | soluble
4 | MSLRTVDEKKEQVEKLIQSLDEGVKNFTYNPGRFKALLEMQALMPKYTFRNIMLARIQLPEAQFIASFNRWKELGRNVKKGERSLRILAPRFKKVKDEITGEEETKLIGFLGVPVFDVSQTEGDPLPADRIKLTLDGESQEAVDIFEWVKELAKEDDCPVTIKHADGANGYYSITNHAIVVDSKLSINHRAKTGVHELVHSRVHRNINGTTATERECVAEGVAFIVCSYFGLDTSDYSFEYVNGWSKDGGESLMKYGDIMQKTANLLIEDFERVAEKSQAQAAGEGEKNDSPISAEGHHHHHH | soluble
5 | MSLRVLFCSSEIYPYAKTGGLADFSFCLIKYLKKYGVKVKGVMPYYKTLKAENLRKTDKGVTLNLNGKDYTFEVYESEDCYFLRNDELFGRDYIYGPPGWGYEDNDIRFGGFSRAVSELISTGQLEADVVHANDWQTALIPLFLKEVFKTPVKTVFTIHNLAYQGLFPKETVERVGIPPYLFHMEAVEFWGLVNFMKGGIVFSDLITTVSPTYAKEIQTQEYGYGLEGVLKKYSYKLRGILNGIDYEVWNPEKDKYIYQNYSLRNYSKKFKNKEFLSKELGIEAEKPLISFINRFTHQKGVELILNCAEEMSKLNANFVFLGTGEYENAFLDVSKIYKNFKVFAEFNEGFARKLYASSDFILMPSYFEPCGLTQMIGMRYGCVPIVRKTGGLRDTVKDISEGGYGITFEEPSKETFLCSLKRAIELYENAKKFRNSVKIVMSLDFSCDRMTKEYIECYEEVQSHQEGHHHHHH | soluble
6 | MSLRWEGTEEEAYKAEGTHFSGARRQTLVGRPAGQEAPAFETRYFEVEPGGYTTLERHEHTHVVMVVRGHAEVVLDDRVEPLTPLDCVYIAPHAWHQIHATGANEPLGFLCIVDSDRDREGHHHHHH | not soluble
7 | MSLSDKTMTADEAVSRLRSGMTLGIGGWGSRRKPMALVRALLRSGITDLTVVSCGGPDVGMLAAAGRIRKLVAAFVTLDSIPLEPHYRAARERGALELMEIDEAMFLWGLRAAAGRLPFLPVRAGIGSDVMRVNPGLRTITSPYVDGETFVAMPALRLDAALVHLNRADRLGNGQYLGPDPYFDDLFCEAADTAYVSCERVVDTAELTKEAAPQTLLVKRHTVTGVVEAEGHHHHHH | not soluble
8 | MSLSDYAPGMTGGPTGFEGAERFQYNNTMSEGRAIEGIKALQAAGNAPAKISMLLTDGAIGQITKPFPEGGPSAKEVWERETGIEIDIVGAPAEDIFKKVMQDVTTGGGTFDIYTGPWNSTGDLVSSGGAVNCSDFVAKYQPDWADPERGTPTPEMEKLLYTYAGDYYSFSLDGDFQTWFYLKGLYEDPRVQDAFLSETGVALKTPDTWEEVDRISKFFTGKDFGNGPMYGNGNLMSPFWGLATFYARFASMDFPNYHFFDEDGNPNLNSDLGIQCAEEHVRSFEWCPPDALTFTWAEAYATMWNLQIPHTAIYTNLVKFGDGYNADGTPKSKATGMIGSHLPVGRRFGDQLNRRSVLYYHITAWISSQSQHPEAVYLFLQWLSSTRTYTWMAGNPGGYFDPMQQANFKEPLVASTYHPYAMETIPQTIARSVPSINFAGQTALDNALDEEIQAAITGQKSAREAMDAAQSKWERIIKRQKRNGIVDAIKASRATWPTIVDEGHHHHHH | soluble
9 | MSLSEADTSNAKLADFFAKKGNEPLSEIEMEGVLALMQKSRGVADESSFLGNSSRLLGDISNANASQVLRTGNISTSSALNVPNFKPSTDESRNINAKEVENSTIVSTPLKRKNFDYSSIRSPYRTVIYRFDDSNKKKISSVFDKPESSSQEVDETPKPSNSKPLSNTASALVSLLSDKDAAKESIKPMANPYTSHLTALRKSREDLPSINDKITVPKRRQRSETEDKEEAKITSSNGEAQEDTNIPEGIASRKNEEAQDSFTKYKPMRSSSLRDSVSLAHTESNNEKQMNSPKFVPAPLDKNETKETAKSDLTLTSSDKQSESKPSFSFPVNSTTKSTFMGTKKESTSPAVNSQAVKNVSNNETKEIKPQVHECIYDFGNPTSSGFKKTDIDDTLVSKYRGQFVFEGHHHHHH | soluble
10 | MSLSEEILINITPMESRVAVVENGVLQEVHVERTQRRGIVGNIYKGRVVRVLPGMQAAFVDIGLERAAFIHAAEISNREGSAVESISALVHEGQALVVQVTKDPIGTKGARLTTHLSIPSRYLVYMPRTSHVGISLRIEDEVERERLKKVVADCVAAEGIEGQGGFILRTAAEGAGEDEILADIRYLRRLWDQIAAQIQTVGAPSVIYEDLSLAIRTLRDLVNPRIEKIRIDSRENFQKITSFVEELMPEISDRLEHYPGERPIFDLYGVEDEIQKALERKVLLKSGGYLIVDPTEAMTTIDVNTGAFVGHRNLEETIFKTNLEAATAIARQLRLRNLGGIIIIDFIDMEDEEHRRQVLRTLEKQLERDHAKTNIIGITELGLVQMTRKRTRESLVQILCEPCPCCQGRGMLKTAETTCYEIFREILREARAYQADSYLVLANQKVVDRLLDEESGNVADLEAFIGRTIKFQVEAMYSQEQYDVVLLEGGSHHHHHH | soluble
11 | MSLSEFWKEKHGEREQDHEKTIMDGYSVANRFDGTGGGWGYSANSVEAIQFKVSKEIRLVGVGLYGGRGEYISKLKLYRQIGTEADELYVEQITETDETVYDCGAHETATMLFSQPIVIQPNHWHVVSAKISGPSSDCGANGKRHVECDGVTFQFRKSAVSNNGTDVDVGQIPELYYQIVGGSESRDESDSNKQLSISREGHHHHHH | soluble
12 | MSLSERTYFPPAEEGELSKVESFLAVYKDRHGTEARPQFFLSGSNEGEQIPLPKELYEILVRTVEALASGKAVTIHPNDPLVTTQQAAELLGVSRPTVVKLIEDGKLEATKVTRHRRIKLEDVLRYQERQTIEQLDFLASTTSDAPALTESEYVSVRKMLANKRKESRIG | not soluble
13 | MSLSETSRQLSGRFLHVTDFHLDTHYRKGTSEETLCHRDSGSAGRLGAEGSDCDSPQALIDETFRWIEKNLKGKIDFVLWTGDSARHDNDEKIPRTASEIIDLNKALAAKFIEVFEDSGAARGLSIPVIPTIGNNDIMPHNIFREAPNRWTRKFTEVWSEFIPEAQRHTFEEGGWFSAELIPNKLAALSLNTMYFYESNSAVDGCAMPSEPGFEHMEWLRVQLEILRQRGMKAILIGHVPPARSGSKRSWDESCWQKYTLFMNRFRDVVVGSVYGHMNVDHFMLQDSHDVDIVAASEDSSSDPGFSVQSRTDYLASLREEWDSMPSPPGGDSSDILLSDDWNLDALGKKEREGHHHHHH | soluble
14 | MSLSEYRRKRSFDKTREPEPGKTLPPGQRAIFVVQLHHASRRHYDFRLQVGDALKSWAVPKGPSYDPKVKRMAVEVEDHPVDYASFEGEIPRGEYGGGHVAQFDHGVWATAGDPEAQLAKGHLRFELFGNKLKGGWHLVRSGKPARQPQWLLFKEDDAYAGLEHHHHHH | soluble
15 | MSLSGIYERLQSLESLDLKSLDKNRTMLLIVDINKGFAKEGALYSDRIEKLISPISNLANYALNSGIRVKAFTDYHTEDSIELKAYPKHCMKDTDEWELVDELNLEGIEVIKKNSTNGFLEENFILNKEEIDNVIIVGDCTDICIYQLAISLRAEFNRVNKDGEIYVPKKLVDTFDMPMHKANFMNYVFLNSMLDNGVKVIEDIILDEGHHHHHH | soluble
16 | MSLSGRYNMNIILGATGQVGSMLVDNLLGKGQPVRAVVRDGLKAQGLKNKGVEVKIADYLDVEALKKAFQGGSSVFLLTPENPESENFINEIQRIMSNYREAVLSSGISKIVGLSSMGAQHKSGTGNLMASYMLEHAFSDLEIEQVFVRPAYYFSNWLGYLELVREYGILPTFFPPELELPMIAPPDVAGFLSDVMTCKTQQERIYEISGPHDYSSSDIAKIFGDVLNKNVTLQQVLPEEWENTLIQAGFSKDGTRNLMLMTKAVIDGKTKNETTNRLRFSTNFKNYLQSVILNMSEGHHHHHH | soluble
17 | MSLSGTDIHTSDYYFLFEEKFRGSRELVKARLRRYIPYFKGCRRVLDIGCGRGEFLELCKEEGIESIGVDINEDMIKFCEGKFNVVKSDAIEYLKSLPDKYLDGVMISHFVEHLDPERLFELLSLCYSKMKYSSYIVIESPNPTSLYSLINFYIDPTHKKPVHPETLKFILEYLGFRDVKIEFFEECEELTKLAKIDSNTVSEEVIRVINENIEKLNRILFGPQDYAIIAKKEGHHHHHH | soluble
18 | MSLSHAETIKLGMSIPLSGSGANWGKGSEWLCAKAAEEIKAAGGVKVQGKVYDFECVGYDNKYNAAEGAKVAQALVSRDGVKYVAGSIGVAPVRALQSLTERRGVLLFTAAWGNSIKGPKFPLTFTQMNSVNEISEPMIAHVKKLHPEIKTVVLLNPNDATGQETEKVAKAAWEKNGVKVLASDWYERGTSEFQPIAAKLNSLKPDLVDLASTPPADAGLVFRELKALGWNGVKVVEVGTGADGLLATGKDAVDGTYLGAAVAVDGLSAHQKALNDGVKKVTGENINSVQIGFYDSVYAIKAAMEKAQSVDPQQVAKVMPDVKFQSFFGEVDFGGKSVYGSDQQMQLPVIITQISGTALKEVGRVQKEGHHHHHH | soluble
19 | MSLSHMGIFKFANGTIRVKDLEKSIEFYRDVIGMHELAREKGVVYFGCGADETFDIAIKEGGTGVEQFALQVADEEDIQYYEKKLTNLGISTQRMSNPEPGKKVALRFAAPSGHQLELALMEDRPHYLHPVAGHKGSRGIGILDADHITLHTKDVKGLAEFLQEALDFRVADVFEPAPGVWGAAWTHASDYHHDVALIGTSEDTTLHHFAFLVSGFEDMKRACDLLAQAGYKIETGPGRHGVGGNLFTYFLDPSGNRIELSAEMPRADRSVPHKVWPDFPPAFSTWGALPPESFAKGEGHHHHHH | soluble
